Molecular target: full length La Crosse virus L protein (RNA-dependent RNA polymerase) (La Crosse virus (strain LACV/mosquito/1978)) (UniProt A5HC98)
Assay: crystal structure; LACV-L FL with 3' (1-16) and 5' (9-16) vRNA at 5 mg/ml, 5' (1-10) vRNA soaked in; 100 mM Tris pH 8.0, 100 mM NaCl, 8% PEG 4000; space group C2, 4.0 Å; two L protein complexes per asymmetric unit

full length La Crosse virus L protein (RNA-dependent RNA polymerase) (from UniProt A5HC98 1-2263) (enzyme)
stoichiometry N: 2
